Here are results for one molecule from patent publication US20130004981A1, “SYSTEM AND METHOD FOR SELECTING MOLECULE INTERACTING WITH PROTEIN PHOSPHATASE” (priority 2011, published 2013).

For assay [1], the target named is T1, PP2A subunits B56γ3, Aα and Cα (Homo sapiens, UniProt P30153+P67775).
T1 construct: HA; Flag; expressed in transfected cells; host or cells: NIH3T3 (mouse embryonic fibroblast cell line)
Description: BiFC-based FRET fluorescence of PP2A holoenzyme assembly (YFPN-B56γ3+YFPC-Aα+CFP-Cα) in transfected NIH3T3 cells. The assay is classed as cell-based. The following applies: NIH3T3 cells co-transfected with YFPN-B56γ3+YFPC-Aα+CFP-Cα plus test plasmid; FIG. 3. The protocol: (§1) In the following embodiments of the present invention, NIH3T3 cells (mouse embryonic fibroblast cell line) was used, which was cultured in Dulbecco's modified Eagle's medium (DMEM) supplemented with 10% bovine serum (BS), 1% Penicillin (10 U/μl)/Streptomycin (10 μg/μl), and 1% L-Glutamine (200 mM). All of the reagents were available from GIBCO.
(§2) NIH3T3 cells were seeded into proper dishes one day before transfection. For example, 7×10^4 cells were seeded in each well of a 24-well plate; 10^6 cells were seeded in a 6 cm dish; and 3×10^6 cells were seeded in a 10 cm dish. […]
(§3) After 24 hrs, cells were washed with PBS buffer three times and fixed by 4% paraformaldehyde/0.025% glutaraldehyde for 15 ruin. […] The cells were observed by fluorescence microscopy (Zeiss, Axio observer Z1). […]
(§4) In the present embodiment, the plasmids of the following experimental groups were transfected into NIH3T3 cells with the aforementioned transfection process, and the cover glasses used in the present embodiment were prepared with the same process described in Embodiment 1. The cells were observed by fluorescence microscopy (Zeiss, Axio observer Z1), and the fluorescence and fluorescent efficiency generated from cells were programmed by Zeiss AxioVision complied with Youvan's method. […]

Assay [2] addresses T2, PP2A subunits Aα, Cα and B55β2 (Homo sapiens, UniProt P30153+P67775).
T2 construct: FLAG; HA (N); Flag; expressed in transfected cells; host or cells: NIH3T3 (mouse embryonic fibroblast cell line)
Description: BiFC-based FRET fluorescence of PP2A holoenzyme assembly (YFPN-Aα+Cα-YFPC+B55β2-CFP) in transfected NIH3T3 cells. It counts as cell-based. The settings on record: NIH3T3 cells co-transfected with YFPN-Aα+Cα-YFPC+B55β2-CFP plus test plasmid; FIG. 4. The procedure: as §1, §2, §3, §4

T2 sequence (P30153 whole entry): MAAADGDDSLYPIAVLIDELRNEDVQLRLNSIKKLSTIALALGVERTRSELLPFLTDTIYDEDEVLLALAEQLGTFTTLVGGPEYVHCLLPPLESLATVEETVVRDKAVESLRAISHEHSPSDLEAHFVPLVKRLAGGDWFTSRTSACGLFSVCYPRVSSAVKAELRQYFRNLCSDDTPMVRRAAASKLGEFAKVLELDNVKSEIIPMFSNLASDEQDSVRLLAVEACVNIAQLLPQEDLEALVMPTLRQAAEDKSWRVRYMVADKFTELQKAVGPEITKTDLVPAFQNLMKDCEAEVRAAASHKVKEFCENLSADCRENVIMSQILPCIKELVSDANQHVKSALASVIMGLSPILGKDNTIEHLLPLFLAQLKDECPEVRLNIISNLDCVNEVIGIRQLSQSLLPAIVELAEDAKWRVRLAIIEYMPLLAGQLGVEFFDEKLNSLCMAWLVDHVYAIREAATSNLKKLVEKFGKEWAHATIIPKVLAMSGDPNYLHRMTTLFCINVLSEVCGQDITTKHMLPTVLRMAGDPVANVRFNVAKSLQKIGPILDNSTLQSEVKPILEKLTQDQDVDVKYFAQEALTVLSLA
T2 sequence (P67775 whole entry): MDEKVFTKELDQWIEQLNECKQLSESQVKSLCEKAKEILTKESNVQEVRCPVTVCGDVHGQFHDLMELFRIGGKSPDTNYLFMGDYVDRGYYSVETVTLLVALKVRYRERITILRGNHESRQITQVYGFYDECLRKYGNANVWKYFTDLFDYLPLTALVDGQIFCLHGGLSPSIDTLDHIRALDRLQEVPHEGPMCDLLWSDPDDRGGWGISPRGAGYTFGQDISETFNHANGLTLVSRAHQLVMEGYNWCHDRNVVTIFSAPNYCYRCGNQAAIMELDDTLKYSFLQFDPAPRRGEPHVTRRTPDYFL
T1 sequence (P30153 whole entry): as the sequence (P30153 whole entry) above
T1 sequence (P67775 whole entry): as the sequence (P67775 whole entry) above

B1: ST: small T (SV40 small T antigen) expressed from pCMV5; may influence the association between the scaffold subunit and the regulatory subunit (protein, UniProt P03081 1-174, looked up)
Small t antigen: MDKVLNREESLQLMDLLGLERSAWGNIPLMRKAYLKKCKEFHPDKGGDEEKMKKMNTLYKKMEDGVKYAHQPDFGGFWDATEVFASSLNPGVDAMYCKQWPECAKKMSANCICLLCLLRMKHENRKLYRKDPLVWVDCYCFDCFRMWFGLDLCEGTLLLWCDIIGQTTYRDLKL
Regarding B1, the “fluorescence generated from cells (association between subunits A and B)” value in assay [1] was “did not generate any fluorescence”. The “fluorescence and efficiency generated from cells (association between subunits A and B)” value in assay [2] was “only generated weak fluorescence and efficiency”.
